Experimental data reported in the supplement of paper PMC9170038.

These sequences were tested on MS2 coat protein (assay: apparent KD of MS2 coat protein; higher = weaker reporter binding). Conditions: Eterna round: R107; input ligand: arginine 13.2 mM.
Method: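 RNA-MaP round R107: designed RNA switches with theophylline, tryptophan, arginine or FMN aptamers are transcribed on-chip within common flanks. They are titrated with SNAP-549-labelled MS2 coat protein in RNA-MaP buffer (100 mM Tris pH 7.5, 80 mM KCl, 4 mM MgCl2), without ligand or with the indicated ligand. Median apparent KD per design.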

Sequence | apparent KD of MS2 coat protein [nM]
AAAACAUGAGGAUCACCCAUGUACAUGGGUCGAGGACCGGUACGGCCGCCACUCGCCGCCCGCCCGCCCGCCACCUCUCCCGCCC | 34.7

Same assay, conditions: Eterna round: R107; input ligand: none

Sequence | apparent KD of MS2 coat protein [nM]
AAUUGGGUUGGUGAGGUGGUUGGAGGCGAUACCAGCGUGGAAACACGCCCUUGGCAGCGCCAAAACAUGAGGAUCACCCAUGUUA [Plzen] | 475
UUAAUCAUAUAAGAAAACUUAUAUGCAGAAGGAGCGUGAUAAAACACAGGUAGGUCGCUGAAGGGAACAUGAGGAUCACCCAUGU [AstrosSSArgA#7] | 23.4
CUGCCAUGCAGAGAUACCAGUGAGCCCAGAACAUGAGGAUCACCCAUGUACGCCGCAGACCACCCUUGGCAGCUCUGCAUGGCAG [#$@$%] | 12.9
CCUUAAUAUGGAAGGAGCGCGCUAACAUGAGGAUCACCCAUGUAAAGGGUUUUAGGCUUAGCGCAGGUAGGUCGCCGUAAGAACC [#09 Exclusion - Arginine B] | 249
UUCAGCUAGUCGGCCGCCACUGCAUGAGGAUCACCCAUGUAGGUCCACACUGCUUCGGCAGUGAGUAGGACCGGGACUAGCUGAG | 9.41
GGCGCGGUGAUGGAAGCCGAACGCUAGGUACGAGGACCGGUACGGCCGCCACUCGUAGUCCUGGGACAUGAGGAUCACCCAUGUA [Same State Trp A GF20] | 119
AAGGGACAUGAGGAUCACCCAUGUACCGAAGGAGCGGCAGAGAUGCCAGGUAGGUCGCGGUACUUGCCGGGUCAUUCAUGCUAAA [Isxeon] | 12
AGACGAGAAGAGGUUUACCCAUGUACAGAAGGAGCGUCGUUGACGACAGGUAGGUCGCUGAAAACAUGAGGAUCACCCAUGUUGA [#05 Exclusion - Arginine A] | 31.1
GCUAGGUCUACGGCCGCCACUAGACGUGGGUUUAACAUGAGGAUCACCCAUGUGCUACAGGCGCAUAGGACCGGGUAGACCUAGC [SSTB NP+V+V2 #10 +-Same Structure] | 414
GUCGCUGAGAGAAGGAGCGUGAAGACAUGAGGAUCACCCAUGUAGAGGCGCCGAAGGCGUUCGCAGGUAGGUCGCUCUCAGUGAC [#1 Same State - Arginine B Attempt #21 (HarryS)] | 15.4
UUCAGCUAGUCGGCCGCCACUACAUGAGGAUCACCCAUGUUCCUAAAACACUGCUUCGGCAGUGGUAGGACCGGGACUAGCUGAG | 31.7
ACGUAAUGCAGAAGGAGCGUCUUAUUAAUACAUGAGGAUCACCCAUGUUAUAUUUAUGGUAGACAGGUAGGUCGCUGAAGUACGA [JR_SSArginiB_Sub008] | 11.8
GGACUAACCAGAAGGAGCGACGCAAAGCAGAAACUGCAUCCUCCGCACGAGGAUCACCCGUGUCAGGUAGGUCGCUGGUUAGUCG [ArgBX 28] | 17.7

Same assay, conditions: Eterna round: R107; input ligand: theophylline 20 uM

Sequence | apparent KD of MS2 coat protein [nM]
GGCCUUGCGGGCGCCCGCAAGGCCGCGGAUACCAGCGAGGUCCAUCGCCCUUGGCAGCCGAACAUGAGGAUCACCCAUGUCGGUU [Same State - Theophylline A Attempt #6 (HarryS)] | 13.7
AAUUGGGUUGGUGAGGUGGUUGGAGGCGAUACCAGCGUGGAAACACGCCCUUGGCAGCGCCAAAACAUGAGGAUCACCCAUGUUA [Plzen] | 365
UUAAUCAUAUAAGAAAACUUAUAUGCAGAAGGAGCGUGAUAAAACACAGGUAGGUCGCUGAAGGGAACAUGAGGAUCACCCAUGU [AstrosSSArgA#7] | 36.2
CCGGAGACCGUGUCAGCGGAAGCAAGAACACGAGGACCGGUACGGCCGCCACUCGAAAGAAGACAUGAGGAUCACCCAUGUCCAU [theeternabot_exclusion_MS2_Trp_A_43] | 15.1
CUGCCAUGCAGAGAUACCAGUGAGCCCAGAACAUGAGGAUCACCCAUGUACGCCGCAGACCACCCUUGGCAGCUCUGCAUGGCAG [#$@$%] | 16.8
AGCCGAAACCUUGAUACCAGAUCAUGCUGCACAUGAGGAUCACCCAUGUCGUUAAACAUGGUCCCUUGGCAGCAAGUUAGGAUCU [Usustiusso] | 161
AUAAUAAUCCUCAUGUAAGGUCCUCGAUAACGAGGACCGGUACGGCCGCCACUCGAACAUGAGGAUCACCCAUGUACGAGGACCA [M' - T' - T - MS2 - T'' Design 1] | 37
CCUUAAUAUGGAAGGAGCGCGCUAACAUGAGGAUCACCCAUGUAAAGGGUUUUAGGCUUAGCGCAGGUAGGUCGCCGUAAGAACC [#09 Exclusion - Arginine B] | 266
UUUACAUGAGGAUCACCCAUGUGCCAUGAUACCAGACAUGAAAAUGUCCCUUGGCAGCAUGAAGGUACCUCAUCGGGAAACCGAA [Malomerice] | 95.7
UUCAGCUAGUCGGCCGCCACUGCAUGAGGAUCACCCAUGUAGGUCCACACUGCUUCGGCAGUGAGUAGGACCGGGACUAGCUGAG | 12.9
GGCGCGGUGAUGGAAGCCGAACGCUAGGUACGAGGACCGGUACGGCCGCCACUCGUAGUCCUGGGACAUGAGGAUCACCCAUGUA [Same State Trp A GF20] | 109
AAGGGACAUGAGGAUCACCCAUGUACCGAAGGAGCGGCAGAGAUGCCAGGUAGGUCGCGGUACUUGCCGGGUCAUUCAUGCUAAA [Isxeon] | 14.3
UAUCUACAUAUAUAGGUUAUUCGAUUAUUUCGAGGACCGGUACGGCCGCCACUCGUUAACAUAUACAUGAGGAUCACCCAUGUUA [JR_Nu_SSTryptoA_Sub023] | 19
GUGAGCGCCGAACAUCGCUGGUCCUCUAUCCGAGGACCGGUACGGCCGCCACUCGACAUGAGGAUCACCCAUGUUGGCACUGGCG [Inbemama] | 13.4
